Target: heat-denatured ovalbumin (UniProt P01012)
Experiment: ELISA

Sequence of UniProt P01012 (P01012 whole entry): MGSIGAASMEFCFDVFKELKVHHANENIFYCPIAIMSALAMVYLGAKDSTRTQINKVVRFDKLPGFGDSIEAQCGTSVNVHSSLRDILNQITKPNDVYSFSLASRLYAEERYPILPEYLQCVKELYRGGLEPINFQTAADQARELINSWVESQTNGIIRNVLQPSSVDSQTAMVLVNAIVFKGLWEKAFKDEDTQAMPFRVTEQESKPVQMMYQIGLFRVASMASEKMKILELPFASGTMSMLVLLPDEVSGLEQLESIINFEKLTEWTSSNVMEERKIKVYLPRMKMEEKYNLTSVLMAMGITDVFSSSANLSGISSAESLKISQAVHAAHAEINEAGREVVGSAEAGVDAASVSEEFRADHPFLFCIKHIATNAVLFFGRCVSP

Kd: 300 µM
Substance: human IRE1α-LD-Fc fusion protein (from UniProt O75460 19-443)
